Here are results for 10 molecules from paper PMC8298264, “Function of cofactor Akirin2 in the regulation of gene expression in model human neutrophil-like HL60 cells” (Bioscience Reports, 2021).

The subject of the test is human HL60 cells. The experiment in a line: SWATH-MS proteomics, differential protein representation, akirin2 KO vs WT HL60 cells. Format: cell-based. The settings on record: KO vs WT HL60 cells; sheet "Under-represented in KO". An outline of the steps: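 WT and akirin2 KO HL60 lysates (150 µg, n=3 biological replicates) were FASP trypsin-digested and desalted. A spectral library was built by IDA from 3 µg digests, then 5 µg per sample went to variable-window SWATH DIA over a 120-min 5–30% acetonitrile gradient. Identifications were accepted at 1% global FDR, with total-area-sum normalization.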

B1: sp¦Q9UGP8¦SEC63_HUMAN (protein, UniProt Q9UGP8 1-760, looked up)
Translocation protein SEC63 …: MAGQQFQYDDSGNTFFYFLTSFVGLIVIPATYYLWPRDQNAEQIRLKNIRKVYGRCMWYRLRLLKPQPNIIPTVKKIVLLAGWALFLFLAYKVSKTDREYQEYNPYEVLNLDPGATVAEIKKQYRLLSLKYHPDKGGDEVMFMRIAKAYAALTDEESRKNWEEFGNPDGPQATSFGIALPAWIVDQKNSILVLLVYGLAFMVILPVVVGSWWYRSIRYSGDQILIRTTQIYTYFVYKTRNMDMKRLIMVLAGASEFDPQYNKDATSRPTDNILIPQLIREIGSINLKKNEPPLTCPYSLKARVLLLSHLARMKIPETLEEDQQFMLKKCPALLQEMVNVICQLIVMARNREEREFRAPTLASLENCMKLSQMAVQGLQQFKSPLLQLPHIEEDNLRRVSNHKKYKIKTIQDLVSLKESDRHTLLHFLEDEKYEEVMAVLGSFPYVTMDIKSQVLDDEDSNNITVGSLVTVLVKLTRQTMAEVFEKEQSICAAEEQPAEDGQGETNKNRTKGGWQQKSKGPKKTAKSKKKKPLKKKPTPVLLPQSKQQKQKQANGVVGNEAAVKEDEEEVSDKGSDSEEEETNRDSQSEKDDGSDRDSDREQDEKQNKDDEAEWQELQQSIQRKERALLETKSKITHPVYSLYFPEEKQEWWWLYIADRKEQTLISMPYHVCTLKDTEEVELKFPAPGKPGNYQYTVFLRSDSYMGLDQIKPLKLEVHEAKPVPENHPQWDTAIEGDEDQEDSEGFEDSFEEEEEEEEDDD
For the molecule B1, the “Fold Change” value is 0.5228 and the “Log (Fold Change)” value is -0.2816.

B2: sp¦O60488¦ACSL4_HUMAN (protein, UniProt O60488 1-711, looked up)
Long-chain-fatty-acid--CoA …: MKLKLNVLTIILLPVHLLITIYSALIFIPWYFLTNAKKKNAMAKRIKAKPTSDKPGSPYRSVTHFDSLAVIDIPGADTLDKLFDHAVSKFGKKDSLGTREILSEENEMQPNGKVFKKLILGNYKWMNYLEVNRRVNNFGSGLTALGLKPKNTIAIFCETRAEWMIAAQTCFKYNFPLVTLYATLGKEAVVHGLNESEASYLITSVELLESKLKTALLDISCVKHIIYVDNKAINKAEYPEGFEIHSMQSVEELGSNPENLGIPPSRPTPSDMAIVMYTSGSTGRPKGVMMHHSNLIAGMTGQCERIPGLGPKDTYIGYLPLAHVLELTAEISCFTYGCRIGYSSPLTLSDQSSKIKKGSKGDCTVLKPTLMAAVPEIMDRIYKNVMSKVQEMNYIQKTLFKIGYDYKLEQIKKGYDAPLCNLLLFKKVKALLGGNVRMMLSGGAPLSPQTHRFMNVCFCCPIGQGYGLTESCGAGTVTEVTDYTTGRVGAPLICCEIKLKDWQEGGYTINDKPNPRGEIVIGGQNISMGYFKNEEKTAEDYSVDENGQRWFCTGDIGEFHPDGCLQIIDRKKDLVKLQAGEYVSLGKVEAALKNCPLIDNICAFAKSDQSYVISFVVPNQKRLTLLAQQKGVEGTWVDICNNPAMEAEILKEIREAANAMKLERFEIPIKVRLSPEPWTPETGLVTDAFKLKRKELRNHYLKDIERMYGGK
For B2, the “Fold Change” value was 0.5384 and the “Log (Fold Change)” value is -0.2689.

B3: sp¦Q9Y276¦BCS1_HUMAN (protein, UniProt Q9Y276 2-419, looked up)
Mitochondrial chaperone BCS1: PLSDFILALKDNPYFGAGFGLVGVGTALALARKGVQLGLVAFRRHYMITLEVPARDRSYAWLLSWLTRHSTRTQHLSVETSYLQHESGRISTKFEFVPSPGNHFIWYRGKWIRVERSREMQMIDLQTGTPWESVTFTALGTDRKVFFNILEEARELALQQEEGKTVMYTAVGSEWRPFGYPRRRRPLNSVVLQQGLADRIVRDVQEFIDNPKWYTDRGIPYRRGYLLYGPPGCGKSSFITALAGELEHSICLLSLTDSSLSDDRLNHLLSVAPQQSLVLLEDVDAAFLSRDLAVENPVKYQGLGRLTFSGLLNALDGVASTEARIVFMTTNHVDRLDPALIRPGRVDLKEYVGYCSHWQLTQMFQRFYPGQAPSLAENFAEHVLRATNQISPAQVQGYFMLYKNDPVGAIHNAESLRR
On to B3, for which the “Fold Change” value turned out to be 0.5207 and the “Log (Fold Change)” value was -0.2834.

B4: sp¦Q9BTT0¦AN32E_HUMAN (protein, UniProt Q9BTT0 1-268, looked up)
Acidic leucine-rich nuclear …: MEMKKKINLELRNRSPEEVTELVLDNCLCVNGEIEGLNDTFKELEFLSMANVELSSLARLPSLNKLRKLELSDNIISGGLEVLAEKCPNLTYLNLSGNKIKDLSTVEALQNLKNLKSLDLFNCEITNLEDYRESIFELLQQITYLDGFDQEDNEAPDSEEEDDEDGDEDDEEEEENEAGPPEGYEEEEEEEEEEDEDEDEDEDEAGSELGEGEEEVGLSYLMKEEIQDEEDDDDYVEEGEEEEEEEEGGLRGEKRKRDAEDDGEEEDD
Take B4: the “Fold Change” value is reported as 0.5286 and the “Log (Fold Change)” value is -0.2769.

B5: sp¦Q9NVJ2¦ARL8B_HUMAN (protein, UniProt Q9NVJ2 1-186, looked up)
ADP-ribosylation factor-like …: MLALISRLLDWFRSLFWKEEMELTLVGLQYSGKTTFVNVIASGQFSEDMIPTVGFNMRKVTKGNVTIKIWDIGGQPRFRSMWERYCRGVNAIVYMIDAADREKIEASRNELHNLLDKPQLQGIPVLVLGNKRDLPNALDEKQLIEKMNLSAIQDREICCYSISCKEKDNIDITLQWLIQHSKSRRS
Consider B5, for which the “Fold Change” value worked out at 0.5417 and the “Log (Fold Change)” value is on record as -0.2663.

B6: sp¦O96011¦PX11B_HUMAN (protein, UniProt O96011 1-259, looked up)
Peroxisomal membrane protein …: MDAWVRFSAQSQARERLCRAAQYACSLLGHALQRHGASPELQKQIRQLESHLSLGRKLLRLGNSADALESAKRAVHLSDVVLRFCITVSHLNRALYFACDNVLWAGKSGLAPRVDQEKWAQRSFRYYLFSLIMNLSRDAYEIRLLMEQESSACSRRLKGSGGGVPGGSETGGLGGPGTPGGGLPQLALKLRLQVLLLARVLRGHPPLLLDVVRNACDLFIPLDKLGLWRCGPGIVGLCGLVSSILSILTLIYPWLRLKP
For B6, the “Fold Change” value was 0.5344 and the “Log (Fold Change)” value is listed as -0.2721.

B7: sp¦Q02218¦ODO1_HUMAN (protein, UniProt Q02218 41-1023, looked up)
2-oxoglutarate dehydrogenase …: SAPVAAEPFLSGTSSNYVEEMYCAWLENPKSVHKSWDIFFRNTNAGAPPGTAYQSPLPLSRGSLAAVAHAQSLVEAQPNVDKLVEDHLAVQSLIRAYQIRGHHVAQLDPLGILDADLDSSVPADIISSTDKLGFYGLDESDLDKVFHLPTTTFIGGQESALPLREIIRRLEMAYCQHIGVEFMFINDLEQCQWIRQKFETPGIMQFTNEEKRTLLARLVRSTRFEEFLQRKWSSEKRFGLEGCEVLIPALKTIIDKSSENGVDYVIMGMPHRGRLNVLANVIRKELEQIFCQFDSKLEAADEGSGDVKYHLGMYHRRINRVTDRNITLSLVANPSHLEAADPVVMGKTKAEQFYCGDTEGKKVMSILLHGDAAFAGQGIVYETFHLSDLPSYTTHGTVHVVVNNQIGFTTDPRMARSSPYPTDVARVVNAPIFHVNSDDPEAVMYVCKVAAEWRSTFHKDVVVDLVCYRRNGHNEMDEPMFTQPLMYKQIRKQKPVLQKYAELLVSQGVVNQPEYEEEISKYDKICEEAFARSKDEKILHIKHWLDSPWPGFFTLDGQPRSMSCPSTGLTEDILTHIGNVASSVPVENFTIHGGLSRILKTRGEMVKNRTVDWALAEYMAFGSLLKEGIHIRLSGQDVERGTFSHRHHVLHDQNVDKRTCIPMNHLWPNQAPYTVCNSSLSEYGVLGFELGFAMASPNALVLWEAQFGDFHNTAQCIIDQFICPGQAKWVRQNGIVLLLPHGMEGMGPEHSSARPERFLQMCNDDPDVLPDLKEANFDINQLYDCNWVVVNCSTPGNFFHVLRRQILLPFRKPLIIFTPKSLLRHPEARSSFDEMLPGTHFQRVIPEDGPAAQNPENVKRLLFCTGKVYYDLTRERKARDMVGQVAITRIEQLSPFPFDLLLKEVQKYPNAELAWCQEEHKNQGYYDYVKPRLRTTISRAKPVWYAGRDPAAAPATGNKKTHLTELQRLLDTAFDLDVFKNFS
For B7, the “Fold Change” value amounted to 0.5221 and the “Log (Fold Change)” value is listed as -0.2822.

B8: sp¦Q8WU39¦MZB1_HUMAN (protein, UniProt Q8WU39 23-189, looked up)
Marginal zone B- and …: DRAPLTATAPQLDDEEMYSAHMPAHLRCDACRAVAYQMWQNLAKAETKLHTSNSGGRRELSELVYTDVLDRSCSRNWQDYGVREVDQVKRLTGPGLSEGPEPSISVMVTGGPWPTRLSRTCLHYLGEFGEDQIYEAHQQGRGALEALLCGGPQGACSEKVSATREEL
Consider B8, for which the “Fold Change” value amounted to 0.5261 and the “Log (Fold Change)” value is listed as -0.279.

B9: sp¦Q9NVA1¦UQCC1_HUMAN (protein, UniProt Q9NVA1 1-299, looked up)
Ubiquinol-cytochrome c …: MALLVRVLRNQTSISQWVPVCSRLIPVSPTQGQGDRALSRTSQWPQMSQSRACGGSEQIPGIDIQLNRKYHTTRKLSTTKDSPQPVEEKVGAFTKIIEAMGFTGPLKYSKWKIKIAALRMYTSCVEKTDFEEFFLRCQMPDTFNSWFLITLLHVWMCLVRMKQEGRSGKYMCRIIVHFMWEDVQQRGRVMGVNPYILKKNMILMTNHFYAAILGYDEGILSDDHGLAAALWRTFFNRKCEDPRHLELLVEYVRKQIQYLDSMNGEDLLLTGEVSWRPLVEKNPQSILKPHSPTYNDEGL
B9: the “Fold Change” value is 0.5349 and the “Log (Fold Change)” value is -0.2718.

B10: sp¦P16615¦AT2A2_HUMAN (protein, UniProt P16615 1-1042, looked up)
Sarcoplasmic/endoplasmic …: MENAHTKTVEEVLGHFGVNESTGLSLEQVKKLKERWGSNELPAEEGKTLLELVIEQFEDLLVRILLLAACISFVLAWFEEGEETITAFVEPFVILLILVANAIVGVWQERNAENAIEALKEYEPEMGKVYRQDRKSVQRIKAKDIVPGDIVEIAVGDKVPADIRLTSIKSTTLRVDQSILTGESVSVIKHTDPVPDPRAVNQDKKNMLFSGTNIAAGKAMGVVVATGVNTEIGKIRDEMVATEQERTPLQQKLDEFGEQLSKVISLICIAVWIINIGHFNDPVHGGSWIRGAIYYFKIAVALAVAAIPEGLPAVITTCLALGTRRMAKKNAIVRSLPSVETLGCTSVICSDKTGTLTTNQMSVCRMFILDRVEGDTCSLNEFTITGSTYAPIGEVHKDDKPVNCHQYDGLVELATICALCNDSALDYNEAKGVYEKVGEATETALTCLVEKMNVFDTELKGLSKIERANACNSVIKQLMKKEFTLEFSRDRKSMSVYCTPNKPSRTSMSKMFVKGAPEGVIDRCTHIRVGSTKVPMTSGVKQKIMSVIREWGSGSDTLRCLALATHDNPLRREEMHLEDSANFIKYETNLTFVGCVGMLDPPRIEVASSVKLCRQAGIRVIMITGDNKGTAVAICRRIGIFGQDEDVTSKAFTGREFDELNPSAQRDACLNARCFARVEPSHKSKIVEFLQSFDEITAMTGDGVNDAPALKKAEIGIAMGSGTAVAKTASEMVLADDNFSTIVAAVEEGRAIYNNMKQFIRYLISSNVGEVVCIFLTAALGFPEALIPVQLLWVNLVTDGLPATALGFNPPDLDIMNKPPRNPKEPLISGWLFFRYLAIGCYVGAATVGAAAWWFIAADGGPRVSFYQLSHFLQCKEDNPDFEGVDCAIFESPYPMTMALSVLVTIEMCNALNSLSENQSLLRMPPWENIWLVGSICLSMSLHFLILYVEPLPLIFQITPLNVTQWLMVLKISLPVILMDETLKFVARNYLEPGKECVQPATKSCSFSACTDGISWPFVLLIMPLVIWVYSTDTNFSDMFWS
Consider B10, for which the “Fold Change” value stood at 0.5392 and the “Log (Fold Change)” value was -0.2682.
